Experiments:
Test in all cases: direct ELISA, OD450
HcoV-229E S protein = target: T1, HcoV-229E S protein (HcoV-229E, UniProt P15423 16-1115)
T1 sequence: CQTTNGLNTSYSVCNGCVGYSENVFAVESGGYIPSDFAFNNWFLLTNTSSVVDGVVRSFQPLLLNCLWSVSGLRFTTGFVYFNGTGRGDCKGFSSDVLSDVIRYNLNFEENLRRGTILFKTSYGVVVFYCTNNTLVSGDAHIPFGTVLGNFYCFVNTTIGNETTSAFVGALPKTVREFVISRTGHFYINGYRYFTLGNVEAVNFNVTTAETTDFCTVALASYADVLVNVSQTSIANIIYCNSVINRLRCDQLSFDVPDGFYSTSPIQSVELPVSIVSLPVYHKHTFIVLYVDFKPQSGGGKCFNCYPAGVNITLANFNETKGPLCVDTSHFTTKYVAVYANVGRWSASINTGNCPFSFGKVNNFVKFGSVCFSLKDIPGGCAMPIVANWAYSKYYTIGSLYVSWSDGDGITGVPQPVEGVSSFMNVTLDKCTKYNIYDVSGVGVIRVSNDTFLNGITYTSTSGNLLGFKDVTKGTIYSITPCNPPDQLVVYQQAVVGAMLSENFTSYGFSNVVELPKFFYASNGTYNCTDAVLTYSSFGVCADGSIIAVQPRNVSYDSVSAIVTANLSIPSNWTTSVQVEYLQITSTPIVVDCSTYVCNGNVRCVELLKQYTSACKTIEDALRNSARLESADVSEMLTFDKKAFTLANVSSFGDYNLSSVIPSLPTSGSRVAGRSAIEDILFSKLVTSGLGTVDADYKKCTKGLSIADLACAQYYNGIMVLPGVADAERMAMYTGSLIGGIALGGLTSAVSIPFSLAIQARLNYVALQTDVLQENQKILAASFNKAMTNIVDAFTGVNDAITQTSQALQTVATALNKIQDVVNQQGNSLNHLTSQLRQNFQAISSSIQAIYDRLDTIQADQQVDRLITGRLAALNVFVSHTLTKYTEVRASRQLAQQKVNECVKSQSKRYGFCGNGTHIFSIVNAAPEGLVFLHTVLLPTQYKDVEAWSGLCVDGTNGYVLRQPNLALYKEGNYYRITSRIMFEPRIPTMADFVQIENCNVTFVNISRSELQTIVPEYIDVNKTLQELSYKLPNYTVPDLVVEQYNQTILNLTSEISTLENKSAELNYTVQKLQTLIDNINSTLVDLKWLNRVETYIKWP

SARS S1 and S2 protein = target: T2, SARS S1 and S2 protein (SARS, UniProt P59594 14-1195)
T2 construct: domain: S1 and S2

HKU1 S1 and S2 protein = target: T3, HKU1 S1 and S2 protein (HKU1, UniProt Q5MQD0 13-1300)
T3 construct: domain: S1 and S2
T3 sequence: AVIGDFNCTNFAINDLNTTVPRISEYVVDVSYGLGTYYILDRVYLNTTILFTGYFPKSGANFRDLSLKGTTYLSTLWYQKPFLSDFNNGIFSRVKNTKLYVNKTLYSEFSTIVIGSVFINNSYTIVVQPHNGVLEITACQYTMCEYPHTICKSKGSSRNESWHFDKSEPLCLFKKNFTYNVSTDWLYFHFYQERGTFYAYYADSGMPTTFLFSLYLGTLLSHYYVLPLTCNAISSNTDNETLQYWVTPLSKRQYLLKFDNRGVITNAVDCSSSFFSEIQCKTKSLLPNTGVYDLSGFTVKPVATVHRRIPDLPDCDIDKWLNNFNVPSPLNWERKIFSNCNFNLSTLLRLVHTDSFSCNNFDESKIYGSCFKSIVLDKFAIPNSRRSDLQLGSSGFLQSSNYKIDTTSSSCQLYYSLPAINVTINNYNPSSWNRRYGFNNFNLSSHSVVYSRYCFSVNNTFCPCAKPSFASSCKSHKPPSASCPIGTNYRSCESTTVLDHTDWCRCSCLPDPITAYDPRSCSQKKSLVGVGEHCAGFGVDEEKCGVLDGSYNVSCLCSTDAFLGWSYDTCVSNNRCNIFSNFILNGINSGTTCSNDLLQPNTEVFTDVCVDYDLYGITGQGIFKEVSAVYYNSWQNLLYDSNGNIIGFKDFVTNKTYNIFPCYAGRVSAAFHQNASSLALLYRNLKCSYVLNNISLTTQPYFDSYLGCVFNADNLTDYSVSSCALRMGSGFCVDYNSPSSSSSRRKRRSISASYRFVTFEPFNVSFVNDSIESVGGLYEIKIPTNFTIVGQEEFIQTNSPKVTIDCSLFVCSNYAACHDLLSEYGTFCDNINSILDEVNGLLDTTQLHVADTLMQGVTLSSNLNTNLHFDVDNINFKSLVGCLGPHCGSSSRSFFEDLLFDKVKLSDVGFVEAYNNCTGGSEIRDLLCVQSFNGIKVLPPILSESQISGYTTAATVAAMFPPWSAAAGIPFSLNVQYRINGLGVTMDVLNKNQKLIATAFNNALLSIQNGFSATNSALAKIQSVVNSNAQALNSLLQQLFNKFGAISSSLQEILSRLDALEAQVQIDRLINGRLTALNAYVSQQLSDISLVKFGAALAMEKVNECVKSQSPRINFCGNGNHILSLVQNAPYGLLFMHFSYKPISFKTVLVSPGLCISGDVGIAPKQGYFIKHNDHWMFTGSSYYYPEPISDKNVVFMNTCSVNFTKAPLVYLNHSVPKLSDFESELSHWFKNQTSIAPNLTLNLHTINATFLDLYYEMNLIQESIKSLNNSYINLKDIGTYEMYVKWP

B1: rabbit monoclonal antibody 1H1 against the SARS-CoV-2 S1 (antibody, V domains shown)
VH: QSLEESGGDLVKPGASLTLTCTASGFSFSSGYDMCWVRQAPGKGLEWIACIGTGSSGNIYYASWAKGRFTISKTSSTTVTLQMTSLTAADTATYFCARDDADYAGPDYFNLWGPGTLVTVSS
VL: DIVMTQTPASVSEPVGGTVTIKCQASESISNWLAWYQQKPGQPPKLLIYAAFTLASGVPSRFKGSGSGTQFTLTINGVECADAATYYCQQTYSSRDVDNVFGGGTEVVVKG
B1: no binding (HcoV-229E S protein); no binding (SARS S1 and S2 protein); no binding (HKU1 S1 and S2 protein).

B2: rabbit monoclonal antibody 1D2 against the SARS-CoV-2 S1 (antibody, V domains shown)
VH: QSVEESGGRLVTPGTSLTLTCTVSGIDIETYWMSWVRQAPGKGLEWIAIITSHDHSGYANWAEGRFTISKTSTTVTLTITDLQPSDTGTYFCAKDVGHSTYDLWGPGTLVTVSS
VL: AAVLTQTPSPVSAAVGGTVTISCQSSESVLSNNRLSWYQQKPGQPPKLLIYAASTLASGVPSRFKGRGSGTQFTLTISDVQCDDAAMYVCAGAFSGSSDTRAFGGGTEVVVKG
B2: no binding (HcoV-229E S protein).

B3: rabbit monoclonal antibody 1A3 against the SARS-CoV-2 S1 (antibody, V domains shown)
VH: QSLEESGGRLVTPGTPLTLTCTVSGFSFSSYHMGWVRQAPGEGLEWIGTLIGIAGNTYYASWAKGRFSISKTSTTVDLKMTSPTTEDTATYWCARIVTATFEFWGPGTLVTVSS
VL: AQVLTQTPSPVSAAVGGTVTISCQASQSVNMNLLSWFQQKPGQPPKLLIYQASNLASGVSARFKGSGSGTQFTLTINEIQCDDAATYYCQGDMGGWMFPFGGGTEVVVTG
B3: no binding (HcoV-229E S protein); no binding (SARS S1 and S2 protein); no binding (HKU1 S1 and S2 protein).

B4: rabbit monoclonal antibody 7G5 against the SARS-CoV-2 S1 (antibody, V domains shown)
VH: QEQLEESGGDLVKPGASLTLTCTASGFSFSSAYYMCWVRQAPGKGLEWIACIGVDSGGNSYYASWAKGRFTISTTSSTTVTLQMTSLTAADKATYFCTRSFSLWGPGTLVTISS
VL: RKWLTQTASSVSAAVGGTVTISCQASQSVYNNDNLAWFQQRPGQPPKLLIYLASNLASGVPPRFSGSGSGTQFTLTISDVQCDDAATYYCLGGYDCSNADCHAFGGGTEVVVKG
B4: no binding (HcoV-229E S protein); no binding (SARS S1 and S2 protein); no binding (HKU1 S1 and S2 protein).

B5: rabbit monoclonal antibody 9A5 against the SARS-CoV-2 S1 (antibody, V domains shown)
VH: QSVEESGGRLVTPGTPLTLTCTVSGFSLSAYQMIWVRQTPGKGLEYIGIMHTGTSAYYANWAKGRFTISKTSSTTVDLKMTSPTTEDTATYFCGRNLNEGFTGAYPFNLWGPGTLVAVSS
VL: DVVMTQTPASVEAAVGGTVTIKCQASQSIGSNLAWYQKKPGQPPKLLIYQASNLASGVPSRFKGSGSGTQFTLTISDLECADAATYYCQMNYYISSSYTYTFGGGTEVVVKG
B5: no binding (HcoV-229E S protein); no binding (SARS S1 and S2 protein); no binding (HKU1 S1 and S2 protein).
